T1: Scc1p tagged with multiple HA epitopes, chromatin-bound (chromatin of nocodazole-arrested yeast), Q12158
T1 chain: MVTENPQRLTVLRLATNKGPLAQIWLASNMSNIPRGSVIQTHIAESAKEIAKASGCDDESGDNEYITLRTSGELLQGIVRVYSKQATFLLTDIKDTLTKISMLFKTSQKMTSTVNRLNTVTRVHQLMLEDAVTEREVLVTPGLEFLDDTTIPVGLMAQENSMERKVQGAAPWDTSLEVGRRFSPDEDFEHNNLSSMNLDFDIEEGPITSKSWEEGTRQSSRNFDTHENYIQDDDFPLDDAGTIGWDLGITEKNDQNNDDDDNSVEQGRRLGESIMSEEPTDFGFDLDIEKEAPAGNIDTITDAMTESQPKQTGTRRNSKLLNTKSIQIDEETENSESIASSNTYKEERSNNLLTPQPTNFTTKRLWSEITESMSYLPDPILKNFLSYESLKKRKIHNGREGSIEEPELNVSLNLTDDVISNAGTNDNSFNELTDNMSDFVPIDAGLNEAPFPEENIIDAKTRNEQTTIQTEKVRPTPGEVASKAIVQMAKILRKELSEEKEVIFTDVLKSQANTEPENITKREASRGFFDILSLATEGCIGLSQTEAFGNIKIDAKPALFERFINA


Experiments:
Esp1 = target: T2, Esp1 (Saccharomyces cerevisiae, UniProt Q03018); assay: In vitro assay for yeast Esp1p activity (Esp1-dependent Scc1p cleavage); assay type: biochemical; conditions: yeast chromatin incubated with extract over-producing Esp1; Western blot
T2 construct: made in house; host or cells: S. cerevisiae W303 derivative overexpressing Esp1p from the GAL1-10 promoter; soluble cell extract, not purified
Experimental: A crude Triton X-100 insoluble chromatin preparation was obtained from yeast cells as described (Liang and Stillman, 1997). The pelleted chromatin was resuspended in yeast cell extracts that had been prepared similar to the supernatant fraction of the chromatin preparation. One tenth volume of an ATP regenerating system was added (50 mM HEPES/KOH pH-7.5, 100 mM KCl, 10 mM MgCl2, 10 mM ATP, 600 mM creatin phosphate, 1.5 mg/ml phophocreatin kinase, 1 mM DTT, 10% glycerol). Reactions were incubated for 10 min at 25° C. with shaking and stopped on ice. The chromatin fraction was separated again from the supernatant by centrifugation, and resuspended in buffer EBX (Liang and Stillman, 1997). Equivalent aliquots of supernatant and chromatin pellet were analysed by SDS-PAGE and Western blotting. Scc1-HA was detected with the anti-HA monoclonal antibody 16B12 (Boehringer Mannheim). […]
Chromatin was prepared from a strain containing Scc1p tagged with HA epitopes that was arrested in metaphase with nocodazol. The proteins in the chromatin preparation were resolved by SDS-PAGE and Scc1-HA was detected by western blotting (FIG. 2, lane 1). […] Aliquots of the supernatant fraction and the chromatin fraction of each reaction were analysed.

[1] = target: T1, Scc1p tagged with multiple HA epitopes, …

Esp1-dependent in vitro cleavage of Scc1p (Esp1)	Molecule	Scc1 cleavage activity in yeast extracts [1]
inhibited	CCN1C(=O)C=CC1=O [N-ethyl maleimide]	
	Esp1 mutant C1531A tagged with a FLAG epitope, overexpressed in yeast (protein) MMVKQEEPLNEISPNTPMTSKSYLLNDTLSKVHHSGQTRPLTSVLSGDASSNSIGILAMHNNIIRDFTKIASNNIDLAIEDITTVDHSLNSIYSLLKSHHMWGHINSTVKQHLMIIVKLINNNALGLASSEIIFLFNETNLFQAHSLKNILLADFSTWNDYYLSNLKILALQIILKRKLVDEYLPHILELFSHDKRYLLKDPNLKAHALTKIVLSFFSVTTSCKVLFGLKFLQYIKQFKLPFKKFISNITVECFSKNLLHKNYLEMGPNKIYLNSFYLSYSMLYDGLDKIMLLDILSYEETTEVQRAIKSKKEFNEYCNMSENRLLWSCISVDDLNVILENATNFLQNKGKHISATLKCLVCLWSTIRLEGLPKNKDILRQFDCTVIYINSNIKSINDESAAALLSELLGVLSEICIDYKEPKRLSNIISVLFNASVLFKSHSFLLKTANLEISNVLISNDSKTSHRTILKFEKFISSAQSAQKKIEIFSCLFNVYCMLRNDTLSFVFDFCQNAFIHCFTRLKITKFIEFSNSSEIMLSVLYGNSSIENIPSENWSQLSRMIFCSLRGIFDLDPLELNNTFDKLHLLNKYELLIRIVYLLNLDMSKHLTTNLSKITKLYINKWLQKSDEKAERISSFEMDFVKMLLCYLNFNNFDKLSIELSLCIKSKEKYYSSIVPYADNYLLEAYLSLYMIDDALMMKNQLQKTMNLSTAKIEQALLHASSLINVHLWDSDLTAFQIYFGKTLPAMKPELFDINNDHNLPMSLYIKVILLNIKIFNESAKLNIKAGNVISAVIDCRKAQNLALSLLKKKNKLSQGSRLALLKSLSFSFFQLIKIHIRIGSARDCEFYSKELSRIISDLEEPIIVYRCLHFLHRYYMITEQTCLQNITLGKANKAFDYLDAEADITSLTMFLYDNKEFVKLEQSLVLYFGDQLEKTFLPNLWKLHLGKDIDDSICLSEYMPKNVINRVHNMWQKVMSQLEEDPFFKGMFESTLGIPSSLPVIPSTMPNNILKTPSKHSTGLKLCDSPRSSSMTPRGKNIRQKFDRIAAISKLKQMKELLESLKLDTLDNHELSKISSLSSLTLTILSNITSIHNAESSLITNFSLTDLPRHMPLLFDKVLNNIDNKNYREFRVSSLIAPNNISTITESIRVSAAQKDLMESNLNINVITIDFCPITGNLLLSKLEPRRKRRTHLRLPLIRSNSRDLDEVHLSFPEATKKLLSIINESNQTTSVEVTNKIKTREERKSWWTTRYDLDKRMQQLLNNIENSWFNGVQGFFSPEVVDNSLFEKFKDKFYEILHQNLPSRKLYGNPAMFIKVEDWVIELFLKLNPQEIDFLSKMEDLIYFVLDILLFHGEENAYDEIDFSMLHVQLEEQIKKYRATMTTNSIFHTFLVVSSSCHLFPWECLSFLKDLSITRVPSYVCLNKLLSRFHYQLPLQVTIEDNISMILNPNGDLSRTESKFKGMFQKIIDAKPSSQLVMNEKPEEETLLKMLQNSNLFVYIGHGGGEQYVRSKEIKKCTKIAPSFLLGASSAAMKYYGKLEPTGTIYTYLLGGCPMVLGNLWDVTDKDIDKFSEELFEKMGFRCNTDDLNGNSLSVSYAVSKSRGVCHLRYLNGAAPVIYGLPIKFVS	Both mutations completely abolished the proteolytic activity in yeast extracts after overproduction of the proteins
	Esp1 mutant H1505A tagged with a FLAG epitope, overexpressed in yeast (protein) MMVKQEEPLNEISPNTPMTSKSYLLNDTLSKVHHSGQTRPLTSVLSGDASSNSIGILAMHNNIIRDFTKIASNNIDLAIEDITTVDHSLNSIYSLLKSHHMWGHINSTVKQHLMIIVKLINNNALGLASSEIIFLFNETNLFQAHSLKNILLADFSTWNDYYLSNLKILALQIILKRKLVDEYLPHILELFSHDKRYLLKDPNLKAHALTKIVLSFFSVTTSCKVLFGLKFLQYIKQFKLPFKKFISNITVECFSKNLLHKNYLEMGPNKIYLNSFYLSYSMLYDGLDKIMLLDILSYEETTEVQRAIKSKKEFNEYCNMSENRLLWSCISVDDLNVILENATNFLQNKGKHISATLKCLVCLWSTIRLEGLPKNKDILRQFDCTVIYINSNIKSINDESAAALLSELLGVLSEICIDYKEPKRLSNIISVLFNASVLFKSHSFLLKTANLEISNVLISNDSKTSHRTILKFEKFISSAQSAQKKIEIFSCLFNVYCMLRNDTLSFVFDFCQNAFIHCFTRLKITKFIEFSNSSEIMLSVLYGNSSIENIPSENWSQLSRMIFCSLRGIFDLDPLELNNTFDKLHLLNKYELLIRIVYLLNLDMSKHLTTNLSKITKLYINKWLQKSDEKAERISSFEMDFVKMLLCYLNFNNFDKLSIELSLCIKSKEKYYSSIVPYADNYLLEAYLSLYMIDDALMMKNQLQKTMNLSTAKIEQALLHASSLINVHLWDSDLTAFQIYFGKTLPAMKPELFDINNDHNLPMSLYIKVILLNIKIFNESAKLNIKAGNVISAVIDCRKAQNLALSLLKKKNKLSQGSRLALLKSLSFSFFQLIKIHIRIGSARDCEFYSKELSRIISDLEEPIIVYRCLHFLHRYYMITEQTCLQNITLGKANKAFDYLDAEADITSLTMFLYDNKEFVKLEQSLVLYFGDQLEKTFLPNLWKLHLGKDIDDSICLSEYMPKNVINRVHNMWQKVMSQLEEDPFFKGMFESTLGIPSSLPVIPSTMPNNILKTPSKHSTGLKLCDSPRSSSMTPRGKNIRQKFDRIAAISKLKQMKELLESLKLDTLDNHELSKISSLSSLTLTILSNITSIHNAESSLITNFSLTDLPRHMPLLFDKVLNNIDNKNYREFRVSSLIAPNNISTITESIRVSAAQKDLMESNLNINVITIDFCPITGNLLLSKLEPRRKRRTHLRLPLIRSNSRDLDEVHLSFPEATKKLLSIINESNQTTSVEVTNKIKTREERKSWWTTRYDLDKRMQQLLNNIENSWFNGVQGFFSPEVVDNSLFEKFKDKFYEILHQNLPSRKLYGNPAMFIKVEDWVIELFLKLNPQEIDFLSKMEDLIYFVLDILLFHGEENAYDEIDFSMLHVQLEEQIKKYRATMTTNSIFHTFLVVSSSCHLFPWECLSFLKDLSITRVPSYVCLNKLLSRFHYQLPLQVTIEDNISMILNPNGDLSRTESKFKGMFQKIIDAKPSSQLVMNEKPEEETLLKMLQNSNLFVYIGAGGGEQYVRSKEIKKCTKIAPSFLLGCSSAAMKYYGKLEPTGTIYTYLLGGCPMVLGNLWDVTDKDIDKFSEELFEKMGFRCNTDDLNGNSLSVSYAVSKSRGVCHLRYLNGAAPVIYGLPIKFVS	Both mutations completely abolished the proteolytic activity in yeast extracts after overproduction of the proteins
	Wildtype Esp1 tagged with a FLAG epitope, overexpressed in yeast (protein) MMVKQEEPLNEISPNTPMTSKSYLLNDTLSKVHHSGQTRPLTSVLSGDASSNSIGILAMHNNIIRDFTKIASNNIDLAIEDITTVDHSLNSIYSLLKSHHMWGHINSTVKQHLMIIVKLINNNALGLASSEIIFLFNETNLFQAHSLKNILLADFSTWNDYYLSNLKILALQIILKRKLVDEYLPHILELFSHDKRYLLKDPNLKAHALTKIVLSFFSVTTSCKVLFGLKFLQYIKQFKLPFKKFISNITVECFSKNLLHKNYLEMGPNKIYLNSFYLSYSMLYDGLDKIMLLDILSYEETTEVQRAIKSKKEFNEYCNMSENRLLWSCISVDDLNVILENATNFLQNKGKHISATLKCLVCLWSTIRLEGLPKNKDILRQFDCTVIYINSNIKSINDESAAALLSELLGVLSEICIDYKEPKRLSNIISVLFNASVLFKSHSFLLKTANLEISNVLISNDSKTSHRTILKFEKFISSAQSAQKKIEIFSCLFNVYCMLRNDTLSFVFDFCQNAFIHCFTRLKITKFIEFSNSSEIMLSVLYGNSSIENIPSENWSQLSRMIFCSLRGIFDLDPLELNNTFDKLHLLNKYELLIRIVYLLNLDMSKHLTTNLSKITKLYINKWLQKSDEKAERISSFEMDFVKMLLCYLNFNNFDKLSIELSLCIKSKEKYYSSIVPYADNYLLEAYLSLYMIDDALMMKNQLQKTMNLSTAKIEQALLHASSLINVHLWDSDLTAFQIYFGKTLPAMKPELFDINNDHNLPMSLYIKVILLNIKIFNESAKLNIKAGNVISAVIDCRKAQNLALSLLKKKNKLSQGSRLALLKSLSFSFFQLIKIHIRIGSARDCEFYSKELSRIISDLEEPIIVYRCLHFLHRYYMITEQTCLQNITLGKANKAFDYLDAEADITSLTMFLYDNKEFVKLEQSLVLYFGDQLEKTFLPNLWKLHLGKDIDDSICLSEYMPKNVINRVHNMWQKVMSQLEEDPFFKGMFESTLGIPSSLPVIPSTMPNNILKTPSKHSTGLKLCDSPRSSSMTPRGKNIRQKFDRIAAISKLKQMKELLESLKLDTLDNHELSKISSLSSLTLTILSNITSIHNAESSLITNFSLTDLPRHMPLLFDKVLNNIDNKNYREFRVSSLIAPNNISTITESIRVSAAQKDLMESNLNINVITIDFCPITGNLLLSKLEPRRKRRTHLRLPLIRSNSRDLDEVHLSFPEATKKLLSIINESNQTTSVEVTNKIKTREERKSWWTTRYDLDKRMQQLLNNIENSWFNGVQGFFSPEVVDNSLFEKFKDKFYEILHQNLPSRKLYGNPAMFIKVEDWVIELFLKLNPQEIDFLSKMEDLIYFVLDILLFHGEENAYDEIDFSMLHVQLEEQIKKYRATMTTNSIFHTFLVVSSSCHLFPWECLSFLKDLSITRVPSYVCLNKLLSRFHYQLPLQVTIEDNISMILNPNGDLSRTESKFKGMFQKIIDAKPSSQLVMNEKPEEETLLKMLQNSNLFVYIGHGGGEQYVRSKEIKKCTKIAPSFLLGCSSAAMKYYGKLEPTGTIYTYLLGGCPMVLGNLWDVTDKDIDKFSEELFEKMGFRCNTDDLNGNSLSVSYAVSKSRGVCHLRYLNGAAPVIYGLPIKFVS	Wild type Esp1 overexpressed to a similar level caused complete cleavage of the Scc1 substrate

Reference: US7410774B1, “Compounds modulating sister chromatid separation and method for identifying same” (Boehringer Ingelheim International GmbH, priority 1999, dated 2008)
